Test results from patent publication US20040115188A1, “Enzyme with proteolytic activity” (priority 2000, published 2004).
Entries after “also recorded” stand apart in the source; their conditions may differ.

What was measured:
Pra1 = assay: Inhibition of proteolytic activity of Pra1 by specific inhibitors; format: biochemical, T. harzianum; settings: 1 mM inhibitor, preincubation 30 minutes at 30° C., pH 7.5
Procedure: In order to determine the catalytic type to which Pra1 belongs, specific inhibitors were used of the different known catalytic mechanisms. The effect of said inhibitors on the activity of Pra1 was analysed by preincubating the enzymatic solution for 30 minutes at 30° C. in 100 mM phosphate buffer pH 7.5 with said specific inhibitors of different known catalytic mechanisms:
1 mM PMSF (100 mM initial solution in isopropanol),
1 mM EDTA (100 mM initial solution in water),
0.1 mM Pepstatin (10 mM initial solution in DMSO),
1 mM Iodoacetamide (100 mM initial solution in water, prepared at the time of use).
In parallel to the enzymatic assay, controls were also performed in the presence of organic solvent in which the inhibitor was dissolved. The residual activity was determined by the percentage of activity in absence of inhibitor.

[1] = Effect of pH on the activity of Pra1; format: biochemical
Procedure: (§1) For the determination of the optimum pH for activity of Pra1, the assay was carried out in the following buffer systems: 100 mM sodium acetate (pH 3-5.5), 100 mM sodium phosphate (pH 6-7), and 100 mM Tris/HCl (pH 7.5-9). The effect of pH on the stability of Pra1 was determined by pre-incubating the enzymatic solution (750 ng) for 24 hours at 4° C. in […] of the aforementioned buffers. Then, aliquots of 10 μl were taken for performing the assay in standard conditions.

[2] = Determination of kinetic parameters Km, Kcat, Kcat/Km (Lineweaver-Burk); format: biochemical; settings: Arg-pNA 0.05-2 mM, 30° C., pH 7.5
Procedure: The determination of the kinetic parameters Km, Kcat, and Kcat/Km was performed from the initial rates calculated in assays with different concentrations of substrate (0.05-2 mM). For this, the substrate was prepared in 0.99 ml of 100 mM sodium phosphate buffer pH 7.5 and preincubated at 30° C. Then the reaction was started by the addition of 10 μl of the purified proteases Pra1 (2.5 ppm) preheated to the same temperature. The activity was monitored for 10 minutes in a Shimadzu UV-160A spectrophotometer at 405 nm kept at 30 ? C by a thermostatA unit of activity represented the release of one 1 nmol of p-NA per minute in the assay conditions. Solutions of enzymes without substrate, and substrate without enzyme were prepared as blanks. The standard calibration curve was constructed with solutions of p-NA (Sigma) at known concentrations (0-200 μM), prepared as indicated above. The kinetic parameters were calculated from representations of double reciprocals or by Lineweaver-Burk (1/V vs 1/S).

[3] = Effect of temperature on the activity of Pra1; format: biochemical
Procedure: In order to determine the optimum temperature for activity of Pra1, the enzymatic assay was performed over a range of temperatures comprised between 30° C. and 85° C. The effect of temperature on the stability of Pra1 was determined by preincubating the enzymatic solution in 100 mM sodium phosphate buffer pH 7.5 for 20 minutes at different temperatures (30-85° C.). The substrate used in these assays was the synthetic peptide N-acetyl-Ile-Glu-Ala-Arg-pNA, specific for trypsins.

[4] = Endopeptidase activity on synthetic peptide substrate for elastases; format: biochemical; settings: 1 mM substrate, 30° C., 20 minutes
Procedure: (§2) Taking into account the information obtained in Example 3.2, the endopeptidase activity of Pra1 on 3 synthetic peptides (Sigma) is assayed with the amino and carboxyl terminals blocked, with allows the different types of activities to be differentiated within the S1 family of peptidases:
N-succinyl-Ala-Ala-Pro-Leu-pNA (Leu-pNA) for elastases, and
(§3) The enzymatic solution (75 ng) was prepared in 90 μl of 100 mM sodium phosphate buffer and preincubated for 5 minutes at 30° C. The reactions were initiated by addition of 10 μl of preheated 10 mM substrate solution (prepared from 100 mM solutions in DMSO stored at −20° C.). After 20 minutes of incubation, the reactions were stopped by addition of 50 μl of 2% (v/v) acetic acid. Then, the absorbance of 100 μl at 405 nm was measured in microtitre plates with 96 wells (Inmunoplate Maxisorp, NUNC) using a Titertek Multiskan Plus 311 A0 (Flow Laboratories) automatic reader, and the nmoles of p-nitroaniline (p-NA) released per minute were calculated. In parallel, enzyme blanks with no substrate and substrate without enzyme were also processed. The standard calibration line was constructed with solutions of para-nitroanaline (p-NA) (Sigma) at known concentrations (0-1.25 mM) prepared from an initial 5 mM solution. This solution was prepared by dissolving p-NA beforehand in a minimum volume of ethanol.

[5] = Endopeptidase activity on synthetic peptide substrate for trypsins; format: biochemical; settings: optimum conditions of activity (30° C. and pH 7.5); 1 U = 1 nmol p-NA per minute
Procedure: as §2
N-acetyl-Ile-Glu-Ala-Arg-pNA (Arg-pNA) for trypsins,
as §3

[6] = Isoelectric point by chromatofocussing; format: physicochemical; settings: observed
Procedure: The purification of enzymes with proteolytic activity obtained from the protocol described in Example 1 was performed from the culture filtrate of T. harzianum CECT 2413 kept for 48 hours in a MM medium with cell walls of C. acutatum as the carbon source. To do this, 2 ml of filtrate dialysed and concentrated 75 times were submitted to chromatofocussing to separate proteins on the basis of their isoelectric point. The elution profiles obtained show two peaks of proteolytic activity on azocasein, one eluted at basic pH, coinciding with the main protein peak, and another at acid pH.

[7] = format: physicochemical; settings: preincubation 24 hours at 4° C.
Procedure: as §1
The activity decreased as the pH of preincubation increased, with a reduction of 40% at pH 7.

[8] = Endopeptidase activity on synthetic peptide substrate for chymotrypsins/subtilisins; format: biochemical; settings: 1 mM substrate, 30° C., 20 minutes
Procedure: as §2
N-succinyl-Ala-Ala-Pro-Phe-pNA (Phe-pNA) for chymotrypsins/subtilisins (this latter belongs to the S8 family).
as §3, with “This solution was prepared by dissolving p-NA beforehand in a minimum volume of ethanol.” left out

Molecule: NC(=O)CI [iodoacetamide, Iodoacetamide]
- effect on the lytic activity of Pra1 (Pra1): weak effect

Molecule: O=S(=O)(F)Cc1ccccc1 [PMSF]
- effect on the lytic activity of Pra1 (Pra1): drastically inhibited

B1: Pra1: enzyme derived from T. harzianum with proteolytic activity, trypsin type serine-endopeptidase, amino acid sequence SEQ. ID. NO.: 1 (protein, listed as Trichoderma harzianum)
chain: MAPVLAIASVLAALPALTMGAAITPRGSDIVGGTTAALGEFPYIVSLSTGGSHFCGGVLIDSRTVVTAGHCTIDQRASSVKVRAGTLTWASGGTQVGVSSLTLHPSYTVDSQGVPDNDVGVWHLATAIPTSSTIGYATLPASGSDPAAGTTLTVAGWGTTSENSNSLPSTLRKVSVPVVARATCDSDYDGEISNNMFCAAVAAGGKDSCSGDSGGPIIDPSGTLVGVVSWGQGCAERGFPGVYTRLGNYVSFINSNRG
- optimum pH for activity [1]: 7.5
- activity in buffers with pH greater than 8.5 or less than 6.5 ([1]; pH greater than 8.5 or less than 6.5): decreased rapidly
- Kcat [2]: 39.64 s⁻¹
- Km [2]: 220 µM
- activity at 30° C. ([3]; 30° C.): 95%
- activity at 45° C. ([3]; 45° C.): 16%
- activity above 55° C. ([3]; above 55° C.): no activity was detected
- optimum temperature for activity ([3]; pH 7.5): ~35 °C
- lytic activity on Leu-pNA (elastase activity) [4]: No lytic activity; also recorded: does not have activity
- specific activity on Arg-pNA [5]: 94,800 U/mg
- isoelectric point (Ip) [6]: 4.7-4.9
- reduction of activity after preincubation at pH 7 ([7]; pH 7): 40%
- proteolytic activity after preincubation at pH 9 ([7]; pH 9): No proteolytic activity was detected
- lytic activity on Phe-pNA (chymotrypsin/subtilisin activity) [8]: No lytic activity; also recorded: does not have activity
